# Reference: patent US20230279137A1 (EVOTEC INTERNATIONAL, published 2023)
# T1: human IFNλ receptor on HEK-Blue IFN-λ cells (human, UniProt Q8IU57 21-520; Q08334 20-325)
# T1 sequence (looked up) 1: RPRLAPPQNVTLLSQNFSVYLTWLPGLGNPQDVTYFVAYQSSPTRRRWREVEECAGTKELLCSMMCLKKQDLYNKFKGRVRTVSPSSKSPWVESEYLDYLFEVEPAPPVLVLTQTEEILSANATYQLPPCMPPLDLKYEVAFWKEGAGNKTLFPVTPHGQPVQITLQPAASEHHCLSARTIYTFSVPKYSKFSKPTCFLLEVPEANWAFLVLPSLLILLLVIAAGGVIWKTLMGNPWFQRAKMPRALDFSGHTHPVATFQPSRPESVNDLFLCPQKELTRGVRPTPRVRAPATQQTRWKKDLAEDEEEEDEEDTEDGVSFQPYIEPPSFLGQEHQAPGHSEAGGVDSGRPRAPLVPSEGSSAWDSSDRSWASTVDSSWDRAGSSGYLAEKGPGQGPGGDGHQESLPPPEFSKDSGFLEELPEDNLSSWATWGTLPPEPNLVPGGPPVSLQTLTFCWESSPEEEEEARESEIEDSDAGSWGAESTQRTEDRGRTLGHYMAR
# T1 sequence (looked up) 2: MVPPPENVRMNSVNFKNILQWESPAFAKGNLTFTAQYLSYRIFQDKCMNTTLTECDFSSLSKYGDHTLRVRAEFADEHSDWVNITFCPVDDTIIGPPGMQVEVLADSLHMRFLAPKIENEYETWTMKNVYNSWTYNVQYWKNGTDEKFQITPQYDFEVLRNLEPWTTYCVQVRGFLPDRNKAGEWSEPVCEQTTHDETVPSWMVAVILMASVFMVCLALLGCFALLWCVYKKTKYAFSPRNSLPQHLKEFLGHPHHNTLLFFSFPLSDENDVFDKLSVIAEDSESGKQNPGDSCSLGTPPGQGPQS
# T2: human IFNγ receptor on HEK-Blue IFN-γ cells (human, UniProt P15260 18-489; P38484 22-337)
# T2 sequence (looked up) 1: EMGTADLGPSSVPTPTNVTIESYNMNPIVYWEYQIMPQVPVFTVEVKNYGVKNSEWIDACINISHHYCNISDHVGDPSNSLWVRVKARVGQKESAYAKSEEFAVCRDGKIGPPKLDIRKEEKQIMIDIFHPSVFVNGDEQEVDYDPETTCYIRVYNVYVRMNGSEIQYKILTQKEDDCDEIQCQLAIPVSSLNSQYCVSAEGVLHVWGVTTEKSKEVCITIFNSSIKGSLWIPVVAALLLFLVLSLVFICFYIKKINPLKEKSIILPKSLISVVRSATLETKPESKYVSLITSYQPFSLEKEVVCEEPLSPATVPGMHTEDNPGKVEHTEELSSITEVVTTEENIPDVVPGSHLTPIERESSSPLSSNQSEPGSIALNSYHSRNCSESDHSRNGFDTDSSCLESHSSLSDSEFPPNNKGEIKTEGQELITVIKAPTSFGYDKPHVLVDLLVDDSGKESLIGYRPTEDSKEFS
# T2 sequence (looked up) 2: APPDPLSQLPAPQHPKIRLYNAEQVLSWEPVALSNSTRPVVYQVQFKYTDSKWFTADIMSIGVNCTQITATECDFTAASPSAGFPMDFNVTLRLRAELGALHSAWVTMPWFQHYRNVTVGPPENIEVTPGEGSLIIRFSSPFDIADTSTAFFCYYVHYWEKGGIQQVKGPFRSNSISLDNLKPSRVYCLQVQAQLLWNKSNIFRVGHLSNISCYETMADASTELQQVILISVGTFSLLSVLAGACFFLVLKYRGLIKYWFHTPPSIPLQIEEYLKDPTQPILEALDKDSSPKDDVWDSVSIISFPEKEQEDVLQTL
# T3: human type I IFN receptor on HEK-Blue IFN-α/β cells (human, UniProt P17181 28-557; P48551 27-515)
# T3 sequence (looked up) 1: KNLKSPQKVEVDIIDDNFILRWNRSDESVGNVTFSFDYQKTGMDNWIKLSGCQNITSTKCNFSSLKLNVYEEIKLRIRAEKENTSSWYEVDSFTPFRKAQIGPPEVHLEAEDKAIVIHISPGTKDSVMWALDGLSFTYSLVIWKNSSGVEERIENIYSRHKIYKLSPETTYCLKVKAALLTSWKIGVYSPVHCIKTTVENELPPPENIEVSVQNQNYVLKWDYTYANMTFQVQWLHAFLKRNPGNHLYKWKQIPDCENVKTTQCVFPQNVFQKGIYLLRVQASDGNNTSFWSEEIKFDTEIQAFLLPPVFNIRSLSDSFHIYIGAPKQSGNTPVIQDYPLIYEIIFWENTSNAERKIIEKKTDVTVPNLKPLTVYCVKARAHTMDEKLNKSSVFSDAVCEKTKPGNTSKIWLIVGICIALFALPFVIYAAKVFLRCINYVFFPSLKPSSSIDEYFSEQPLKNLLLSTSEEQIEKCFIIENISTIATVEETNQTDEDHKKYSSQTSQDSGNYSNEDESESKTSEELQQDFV
# T3 sequence (looked up) 2: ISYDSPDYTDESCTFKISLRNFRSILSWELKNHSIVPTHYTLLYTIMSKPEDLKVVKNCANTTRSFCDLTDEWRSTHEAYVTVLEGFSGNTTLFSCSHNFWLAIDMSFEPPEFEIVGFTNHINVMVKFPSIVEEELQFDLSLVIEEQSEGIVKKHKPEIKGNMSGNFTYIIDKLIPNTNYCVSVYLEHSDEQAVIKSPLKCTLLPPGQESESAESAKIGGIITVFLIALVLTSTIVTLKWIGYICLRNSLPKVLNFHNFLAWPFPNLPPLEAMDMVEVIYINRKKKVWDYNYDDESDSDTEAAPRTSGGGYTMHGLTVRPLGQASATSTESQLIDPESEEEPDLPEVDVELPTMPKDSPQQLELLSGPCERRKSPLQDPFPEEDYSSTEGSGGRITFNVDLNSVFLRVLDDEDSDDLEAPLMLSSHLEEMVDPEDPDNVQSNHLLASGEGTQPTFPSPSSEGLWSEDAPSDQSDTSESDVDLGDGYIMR
# Columns and labels:
# Assay in all cases: cell-based or functional assay
# [1] = molecular target: T1, human IFNλ receptor on HEK-Blue IFN-λ …
# human CD40 = human CD40 (human, UniProt P25942 21-277)
# [2] = molecular target: T2, human IFNγ receptor on HEK-Blue IFN-γ …
# [3] = molecular target: T2, human IFNγ receptor on HEK-Blue IFN-γ …; remark: listed apart in the source
# [4] = molecular target: T3, human type I IFN receptor on HEK-Blue …
# Chain of human CD40 (P25942 21-277): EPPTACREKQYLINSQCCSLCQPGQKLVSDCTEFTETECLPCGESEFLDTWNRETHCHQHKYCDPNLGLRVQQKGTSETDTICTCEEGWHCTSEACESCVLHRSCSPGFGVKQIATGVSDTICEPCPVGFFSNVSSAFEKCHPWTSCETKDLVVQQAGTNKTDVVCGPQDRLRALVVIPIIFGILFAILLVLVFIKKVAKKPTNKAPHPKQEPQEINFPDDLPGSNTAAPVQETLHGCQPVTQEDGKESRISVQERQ
"IFNλ EC50 (ng/mL), reporter in HEK-Blue IFNλ cells [1] [ng/mL]","CD40 EC50 (ng/mL), NFκB-SEAP reporter in HEK-Blue CD40L cells (human CD40) [ng/mL]","IFNγ activity EC50, reporter in HEK-Blue IFNγ cells [2] [ng/mL]","IFNγ EC50 (ng/mL), reporter in HEK-Blue IFNγ cells [3] [ng/mL]","IFNε EC50 (ng/mL), SEAP reporter in HEK-Blue hIFN-α/β cells [4] [ng/mL]",Binder
0.153,41.4,,,,"IFA44 (antibody, human IgG2, kappa) light: DIQMTQSPSSVSASVGDRVTITCRASQGIYSWLAWYQQKPGKAPNLLIYTASTLQSGVPSRFSGSGSGTDFTLTISSLQPEDFATYYCQQANIFPLTFGGGTKVEIKRTVAAPSVFIFPPSDEQLKSGTASVVCLLNNFYPREAKVQWKVDNALQSGNSQESVTEQDSKDSTYSLSSTLTLSKADYEKHKVYACEVTHQGLSSPVTKSFNRGECGGGGSGGGGSGGGGSGGGGSVPVARLHGALPDARGCHIAQFKSLSPQELQAFKRAKDALEESLLLKDCRCHSRLFPRTWDLRQLQVRERPMALEAELALTLKVLEATADTDPALVDVLDQPLHTLHHILSQFRACIQPQPTAGPRTRGRLHHWLYRLQEAPKKESPGCLEASVTFNLFRLLTRDLNCVASGDLCV heavy: not shown"
,50.8,< 0.01,< 0.001,,"IFA43 (antibody, human IgG2, kappa) heavy: not shown light: DIQMTQSPSSVSASVGDRVTITCRASQGIYSWLAWYQQKPGKAPNLLIYTASTLQSGVPSRFSGSGSGTDFTLTISSLQPEDFATYYCQQANIFPLTFGGGTKVEIKRTVAAPSVFIFPPSDEQLKSGTASVVCLLNNFYPREAKVQWKVDNALQSGNSQESVTEQDSKDSTYSLSSTLTLSKADYEKHKVYACEVTHQGLSSPVTKSFNRGEC"
< 0.001,25.8,,,,"IFA45 (antibody, human IgG2, kappa) heavy: not shown light: DIQMTQSPSSVSASVGDRVTITCRASQGIYSWLAWYQQKPGKAPNLLIYTASTLQSGVPSRFSGSGSGTDFTLTISSLQPEDFATYYCQQANIFPLTFGGGTKVEIKRTVAAPSVFIFPPSDEQLKSGTASVVCLLNNFYPREAKVQWKVDNALQSGNSQESVTEQDSKDSTYSLSSTLTLSKADYEKHKVYACEVTHQGLSSPVTKSFNRGEC"
,65.8,,,78.2,"IFA49 (antibody, human IgG2, kappa) heavy: not shown light: DIQMTQSPSSVSASVGDRVTITCRASQGIYSWLAWYQQKPGKAPNLLIYTASTLQSGVPSRFSGSGSGTDFTLTISSLQPEDFATYYCQQANIFPLTFGGGTKVEIKRTVAAPSVFIFPPSDEQLKSGTASVVCLLNNFYPREAKVQWKVDNALQSGNSQESVTEQDSKDSTYSLSSTLTLSKADYEKHKVYACEVTHQGLSSPVTKSFNRGEC"
